From PMC9400332

B1: Cedar virus fusion protein F (CedV F): g2 (protein)
parent chain: MSNKRTTVLIIISYTLFYLNNAAIVGFDFDKLNKIGVVQGRVLNYKIKGDPMTKDLVLKFIPNIVNITECVREPLSRYNETVRRLLLPIHNMLGLYLNNTNAKMTGLMIAGVIMGGIAIGIATAAQITAGFALYEAKKNTENIQKLTDSIMKTQDSIDKLTDSVGTSILILNKLQTYINNQLVPNLELLSCRQNKIEFDLMLTKYLVDLMTVIGPNINNPVNKDMTIQSLSLLFDGNYDIMMSELGYTPQDFLDLIESKSITGQIIYVDMENLYVVIRTYLPTLIEVPDAQIYEFNKITMSSNGGEYLSTIPNFILIRGNYMSNIDVATCYMTKASVICNQDYSLPMSQNLRSCYQGETEYCPVEAVIASHSPRFALTNGVIFANCINTICRCQDNGKTITQNINQFVSMIDNSTCNDVMVDKFTIKVGKYMGRKDINNINIQIGPQIIIDKVDLSNEINKMNQSLKDSIFYLREAKRILDSVNISLISPSVQLFLIIISVLSFIILLIIIVYLYCKSKHSYKYNKFIDDPDYYNDYKRERINGKASKSNNIYYVGD
B2: Cedar virus fusion protein F (CedV F): g6 (protein)
parent chain: B1 parent chain
B3: Cedar virus fusion protein F (CedV F): g4 (protein)
parent chain: B1 parent chain
B4: Cedar virus fusion protein F (CedV F): g3 (protein)
parent chain: B1 parent chain
B5: Cedar virus fusion protein F (CedV F): g1 (protein)
parent chain: B1 parent chain

Conditions: glycan lost

Protein	localisation_or_trafficking	other: cell-cell fusion activity	other: cell-cell fusion activity, fold_change	other: proteolytic processing	expression_or_secretion
B1	increases	decreases	decreases	no change	–
B2	decreases	–	–	no change	–
B3	–	–	–	–	no change
B4	decreases	–	–	no change	–
B5	decreases	–	–	–	no change
